Test results taken from publication PMC3397946, “Identification and Characterization of the Cognate Anti-Sigma Factor and Specific Promoter Elements of a T. tengcongensis ECF Sigma Factor”.

Assays:
Tt-RpoE1 Y67A = target: T1, Tt-RpoE1 Y67A (Thermoanaerobacter tengcongensis MB4T, UniProt Q8RCT7 1-162, Y67A); assay: EMSA; 5 uM protein; affinity remained; 50 mM Tris-HCl pH 8.0, 10 mM MgAc2, 30 mM NaCl, 1 mM DTT, 5% glycerol, 30 ug/ml BSA, 0.5 mM EDTA, 1 ug poly(dI-dC), 20 fmol probe in 20 ul, 25 C, 20 min; conditions: protein: recombinant; tags: His (pET28a); label: 5'-32P top strand; fork: top 3' overhang 12 nt
T1 sequence: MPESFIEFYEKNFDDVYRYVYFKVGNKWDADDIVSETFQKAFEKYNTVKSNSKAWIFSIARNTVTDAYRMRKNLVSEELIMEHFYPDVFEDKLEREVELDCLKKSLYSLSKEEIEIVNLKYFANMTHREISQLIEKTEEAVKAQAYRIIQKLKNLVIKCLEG

Tt-RpoE1 R69A = target: T2, Tt-RpoE1 R69A (Thermoanaerobacter tengcongensis MB4T, UniProt Q8RCT7 1-162, R69A); assay: as above; conditions: protein: recombinant; tags: His (pET28a); label: 5'-32P top strand; fork: top 3' overhang 12 nt
T2 sequence: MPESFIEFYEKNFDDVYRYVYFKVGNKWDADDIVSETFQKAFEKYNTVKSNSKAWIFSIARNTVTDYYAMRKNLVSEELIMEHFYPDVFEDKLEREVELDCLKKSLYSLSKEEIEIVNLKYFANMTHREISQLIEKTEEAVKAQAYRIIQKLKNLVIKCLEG

Tt-RpoE1 [1] = target: T3, Tt-RpoE1 (Thermoanaerobacter tengcongensis MB4T, UniProt Q8RCT7 1-162); assay: EMSA; 5 uM protein; parental; 50 mM Tris-HCl pH 8.0, 10 mM MgAc2, 30 mM NaCl, 1 mM DTT, 5% glycerol, 30 ug/ml BSA, 0.5 mM EDTA, 1 ug poly(dI-dC), 20 fmol probe in 20 ul, 25 C, 20 min; conditions: protein: recombinant; tags: His (pET28a); label: 5'-32P top strand; fork: top 3' overhang 12 nt
T3 sequence: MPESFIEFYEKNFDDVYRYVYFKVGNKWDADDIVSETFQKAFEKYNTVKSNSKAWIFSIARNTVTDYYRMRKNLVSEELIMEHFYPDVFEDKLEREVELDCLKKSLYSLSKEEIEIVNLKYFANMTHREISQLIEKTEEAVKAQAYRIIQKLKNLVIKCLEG

Tt-RpoE1 [2] = target: T3, Tt-RpoE1; assay: EMSA; 5 uM protein; little effect; 50 mM Tris-HCl pH 8.0, 10 mM MgAc2, 30 mM NaCl, 1 mM DTT, 5% glycerol, 30 ug/ml BSA, 0.5 mM EDTA, 1 ug poly(dI-dC), 20 fmol probe in 20 ul, 25 C, 20 min; conditions: protein: recombinant; tags: His (pET28a); label: 5'-32P top strand; fork: top 3' overhang 12 nt
Tt-RpoE1 [3] = target: T3, Tt-RpoE1; assay: EMSA; 5 uM protein; abolition; 50 mM Tris-HCl pH 8.0, 10 mM MgAc2, 30 mM NaCl, 1 mM DTT, 5% glycerol, 30 ug/ml BSA, 0.5 mM EDTA, 1 ug poly(dI-dC), 20 fmol probe in 20 ul, 25 C, 20 min; conditions: protein: recombinant; tags: His (pET28a); label: 5'-32P top strand; fork: top 3' overhang 10 nt
Tt-RpoE1 D66A = target: T4, Tt-RpoE1 D66A (Thermoanaerobacter tengcongensis MB4T, UniProt Q8RCT7 1-162, D66A); assay: EMSA; 5 uM protein; D66A cures -12G defect; 50 mM Tris-HCl pH 8.0, 10 mM MgAc2, 30 mM NaCl, 1 mM DTT, 5% glycerol, 30 ug/ml BSA, 0.5 mM EDTA, 1 ug poly(dI-dC), 20 fmol probe in 20 ul, 25 C, 20 min; conditions: protein: recombinant; tags: His (pET28a); label: 5'-32P top strand; fork: top 3' overhang 12 nt
T4 sequence: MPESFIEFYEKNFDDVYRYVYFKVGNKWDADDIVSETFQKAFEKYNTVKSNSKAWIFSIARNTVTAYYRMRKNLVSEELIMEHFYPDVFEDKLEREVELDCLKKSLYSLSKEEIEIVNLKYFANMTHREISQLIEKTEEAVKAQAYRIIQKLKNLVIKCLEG

B1: D-5/-12 (dsDNA)
DNA 1: TGTTACCTTTTGTGTAGATTTTCGTCTATAAAGGTG
DNA 2: CGAAAATCTACACAAAAGGTAACA
B1: binds (Tt-RpoE1 Y67A); binds (Tt-RpoE1 R69A); binds (Tt-RpoE1 [1]).

B2: D-5-B1C (-13C to T) (dsDNA)
DNA 1: TGTTACCTTTTGTGTAGATTTTTGTCTATAAAGGTG
DNA 2: CAAAAATCTACACAAAAGGTAACA
B2: binds (Tt-RpoE1 [2]).

B3: D-5-M5 (-32TACC-29 to GGTT) (dsDNA)
DNA 1: TGTGGTTTTTTGTGTAGATTTTCGTCTATAAAGGTG
DNA 2: GACGAAAATCTACACAAAAAACCACA
B3: no binding (Tt-RpoE1 [3]).

B4: D-5-BM3 (-9TA-8 to CC) (dsDNA)
DNA 1: TGTTACCTTTTGTGTAGATTTTCGTCCCTAAAGGTG
DNA 2: CGAAAATCTACACAAAAGGTAACA
B4: binds (Tt-RpoE1 [2]).

B5: D-5-b8a/-12 (-6A to G) (dsDNA)
DNA 1: TGTTACCTTTTGTGTAGATTTTCGTCTATGAAGGTG
DNA 2: CGAAAATCTACACAAAAGGTAACA
B5: binds (Tt-RpoE1 [2]).

B6: D-5-b5t/-12 (-9T to G) (dsDNA)
DNA 1: TGTTACCTTTTGTGTAGATTTTCGTCGATAAAGGTG
DNA 2: CGAAAATCTACACAAAAGGTAACA
B6: binds (Tt-RpoE1 [2]).

B7: D-5-B2G (-12G to T) (dsDNA)
DNA 1: TGTTACCTTTTGTGTAGATTTTCTTCTATAAAGGTG
DNA 2: AGAAAATCTACACAAAAGGTAACA
B7: binds (Tt-RpoE1 D66A).

B8: D-5-BM4 (-9TATA-6 to CCCC) (dsDNA)
DNA 1: TGTTACCTTTTGTGTAGATTTTCGTCCCCCAAGGTG
DNA 2: CGAAAATCTACACAAAAGGTAACA
B8: binds (Tt-RpoE1 [2]).
